# In publication PMC5823908, “Human mitochondrial pyruvate carrier 2 as an autonomous membrane transporter” (Scientific Reports, 2018):
# B1: purified human MPC2 after removal of GFP-10xHis (natural protein, UniProt O95563 1-127, looked up)
# chain: MSAAGARGLRATYHRLLDKVELMLPEKLRPLYNHPAGPRTVFFWAPIMKWGLVCAGLADMARPAEKLSTAQSAVLMATGFIWSRYSLVIIPKNWSLFAVNFFVGAAGASQLFRIWRYNQELKAKAHK
# notes: human mitochondrial pyruvate carrier 2 (MPC2), codon-optimized synthetic gene, NCBI NP_001137146.1; Residues of the PreScission site probably stay at the C-terminus after cleavage; also called purified MPC2; MPC2-detergent (DDM) complex; source: S. cerevisiae lacking endogenous MPC (3Δ); extracted with 1% C12E8, purified by Co-IMAC, PreScission Protease removal of GFP-10xHis, gel filtration in …
# Target: the molecule itself
# Assay: cross-linking; purified MPC2-detergent (DDM) complex, about 10 μg protein, DSS 0.2-4 mM, 30 min, room temperature, 20 mM HEPES pH 8.0, 300 mM NaCl, 5% glycerol, 0.05 mM TCEP, 0.03% DDM
protein,measurement,value
B1,stoichiometry N,2
